{"source": "paper PMC7140604", "key": {"[1]": {"biological_target": "Ag85 (antigen 85 complex proteins) on the surface of live Mycobacterium abscessus cells (M. abscessus (endogenous in CIP104536T cells))", "test": "single-molecule force spectroscopy (AFM); Fn-functionalized gold-coated AFM tip on live M. abscessus R cells adhered to a hydrophobic Petri dish; PBS; maximum force 250 pN, contact time 500 ms, retraction 1 um/s"}, "[2]": {"biological_target": "Ag85 (antigen 85 complex proteins) on the surface of live Mycobacterium abscessus cells (M. abscessus (endogenous in CIP104536T cells))", "test": "single-cell force spectroscopy (AFM); single M. abscessus R cell on a polydopamine colloidal probe against Fn coupled to a gold surface; PBS; maximum force 250 pN, contact time 500 ms, approach and retraction 1 um/s"}, "[3]": {"biological_target": "Ag85 (antigen 85 complex proteins) on the surface of live Mycobacterium abscessus cells (M. abscessus (endogenous in CIP104536T cells))", "test": "dynamic force spectroscopy (AFM single-molecule force spectroscopy at varied loading rate); Fn tip on live M. abscessus R cells; retraction speeds 0.5, 1, 2.5, 5 and 10 um/s; loading rates 100 to 100,000 pN/s; 13 cells; fit of the Friddle-Noy-de Yoreo model; Kd calculated from Feq and keff (7 pN/nm)"}}, "data": [{"substance": "purified human plasma fibronectin (natural protein)", "values": [{"measurement": "adhesion (rupture) force", "setting": "[1]", "value": 75, "unit": "pN"}, {"measurement": "adhesion frequency (fraction of adhesive force curves), without peptide", "setting": "[1]", "value": 30, "unit": "%"}, {"measurement": "adhesion force", "setting": "[2]", "value": 77, "unit": "pN"}, {"measurement": "adhesion frequency (fraction of adhesive force curves), without peptide", "setting": "[2]", "value": 30, "unit": "%"}, {"measurement": "Kd", "setting": "[3]", "value": 95, "unit": "nM"}, {"measurement": "equilibrium force (Feq)", "setting": "[3]", "value": 34, "unit": "pN"}, {"measurement": "koff", "setting": "[3]", "value": 33, "unit": "s⁻¹"}]}]}
